One assay addresses T1, hCGRP(13-24) (human).
T1 construct: also called polypeptide 13-24
T1 peptide: Biotin-GGGGGAGLLSRSGGVVK
The assay can be described thus: BLI (Octet), biotin-peptide on SA probe. As to the method:
(§1) The kinetic parameters of C245 Fab (Fab monomer fragments derived from antibody C245) binding to six synthetic human CGRP alpha polypeptide fragments (polypeptide 1-13, polypeptide 1-19, polypeptide 1-37, polypeptide 8-19, polypeptide 8-26, and polypeptide 13-24) were determined on an Octet RBD 96e system. Human CGRP synthetic polypeptide fragments were immobilized on the surfaces of SA bioprobes (Sartorius, Cat. No. 18-5019) at the following concentrations: 46.5 nM for hCGRP (1-13), 8.5 nM for CGRP (1-19), 15.5 nM for hCGRP (1-37), 8.5 nM for hCGRP (8-19), 15.5 nM for hCGRP (8-26), and 46.5 nM for hCGRP (13-24). The immobilized synthetic human CGRP polypeptide fragments were bound to 45 nM of C245 Fab and the binding dissociation curves were fitted using analytical software.
A general note: Biolayer interferometry detects binding as a change in optical thickness at a sensor tip.

The target in the next assay is T2, hCGRP(8-26) (human, N-terminal biotin).
T2 construct: also called polypeptide 8-26
T2 peptide: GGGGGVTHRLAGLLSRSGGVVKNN
Nature of the assay: BLI (Octet), biotin-peptide on SA probe, 45 nM Fab. How it is done: as §1
(§2) The kinetic parameters of hu224 Fab (Fab monomer fragments derived from humanized antibody hu224) binding to four synthetic human CGRP alpha polypeptide fragments (polypeptide 1-13, polypeptide 1-19, polypeptide 1-37, and polypeptide 8-19) were determined on an Octet RBD 96e system. Human CGRP synthetic polypeptide fragments were immobilized on the surfaces of SA bioprobes (Sartorius, Cat. No. 18-5019) at the following concentrations: 8.5 nM for CGRP (1-19), 15.5 nM for hCGRP (1-37), 10 nM for hCGRP (8-19), and 15.5 nM for hCGRP (8-26). The immobilized synthetic human CGRP polypeptide fragments were bound to 45 nM of hu224 Fab and the binding dissociation curves were fitted using analytical software.

Another assay concerns the target T3, hCGRP(8-19) (human).
T3 construct: also called polypeptide 8-19
T3 peptide: Biotin-GGGGGVTHRLAGLLSRS
The assay can be described thus: BLI (Octet), biotin-peptide on SA probe, 45 nM Fab. How it is done:
as §1, §2

A further assay concerns the target T4, hCGRP(1-37) (human, N-terminal biotin; C-terminal phenylalanine amide (F-NH2); CYS residues at positions 7 and 12 theoretically form 1 intrachain disulfide bond).
T4 construct: also called polypeptide 1-37; full-length hCGRP (1-37) polypeptide
T4 peptide: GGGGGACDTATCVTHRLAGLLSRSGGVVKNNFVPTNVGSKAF
Nature of the assay: BLI (Octet), biotin-peptide on SA probe, 45 nM Fab. As to the method:
as §1, §2

The target in a further assay is T5, hCGRP(1-19) (human, N-terminal biotin; CYS residues at positions 7 and 12 theoretically form 1 intrachain disulfide bond).
T5 construct: also called polypeptide 1-19
T5 peptide: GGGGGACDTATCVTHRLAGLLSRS
Nature of the assay: BLI (Octet), biotin-peptide on SA probe, 45 nM Fab. How it is done:
as §1, §2

Assay [1] addresses T6, hCGRP(1-13) (human, disulfide 7-12).
T6 construct: also called polypeptide 1-13
T6 peptide: Biotin-GGGGGACDTATCVTHRLA
The assay can be described thus: BLI (Octet), biotin-peptide on SA probe, 45 nM Fab. As to the method:
as §1, §2

In assay [2] the target is T6, hCGRP(1-13). The assay can be described thus: BLI (Octet); hCGRP (1-13) against the fragments holding 8-19. As to the method:
as §1

The target of the next assay is CGRP antigen. Nature of the assay: cell-based or functional assay.
The target in assay [3] is T7, synthetic human α-CGRP polypeptide (SEQ ID NO: 97)-NH2 (human, C-terminal phenylalanine amide (F-NH2); one intrachain disulfide bond between the two CYS residues (printed as positions 7 and 12)).
T7 construct: Analyte in solution (50 nM) in the pH-dependence BLI assay
T7 peptide: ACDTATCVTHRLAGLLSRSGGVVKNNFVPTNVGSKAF
The assay can be described thus: BLI (Octet), antibody on AHC2, 50 nM CGRP; association pH 7.4, dissociation pH 5.5. How it is done:
(§3) The association/dissociation profiles for three antibodies Hu224, galcanezumab analogue and fremanezumab analogue binding to the antigen human α-CGRP in solutions at different pH (7.4 and 5.5) were determined on an Octet RBD96e system. The pH 7.4 buffer contained 10 mM HEPES (pH 7.4), 150 mM sodium chloride, 3 mM EDTA, and 0.05% P20. The pH 5.5 buffer contained 10 mM NaAc (pH 5.5), 150 mM sodium chloride, and 0.05% P20. The three antibodies Hu224, galcanezumab analogue, and fremanezumab analogue were immobilized on the surfaces of AHC2 bioprobes (Sartorius, Cat. No. 18-5142) at 10 μg/mL, respectively. 50 nM human α-CGRPs diluted in different pH (7.4 and 5.5) buffers were used to bind to the antibodies during the 0 to 200 s antigen association phase, and different pH (7.4 and 5.5) buffers were used to wash during the 0 to 200 s antigen dissociation phase. The conditions were pH 7.4 association and pH 7.4 dissociation, pH 7.4 association and pH 5.5 dissociation, and pH 5.5 association and pH 5.5 dissociation. The binding signals of the antigen at the time of injection for 200 s were calculated using analytical software and fitted to give the dissociation constant kd. The amino acid sequence of the synthetic human α-CGRP polypeptide fragment is […] […]

The next assay has as its target T8, Biotin-huCGRPaSA (human, not fully specified; biotin (position not given)).
T8 construct: exact construct ('aSA') not explained; also called Biotin CGRPaSA; full-length (1-37) CGRP
T8 peptide: T7 peptide
Nature of the assay: ELISA, supernatant; relative to chimeric C245. An outline of the steps:
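Plates coated with biotin-CGRPaSA at 1.0 μg/mL (90 min, 37°C) and blocked with 2% BSA. Humanized antibodies and chimeric C245 reference, 2.5-fold serial dilutions from 1000 ng/mL, bound 60 min at 37°C. Detection by HRP anti-human IgG (Fc), TMB 15 min, read at 450/620 nm.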

In assay [4] the target is T7, synthetic human α-CGRP polypeptide (SEQ …). The assay can be described thus: BLI (Octet), antibody on AHC2, 50 nM CGRP; association pH 5.5, dissociation pH 5.5. How it is done: as §3
For assay [5] the target is unchanged. Nature of the assay: BLI (Octet), antibody on AHC2, 50 nM CGRP; association pH 7.4, dissociation pH 7.4. As to the method:
as §3

Bridges are numbered along the chain shown (N, C = ends). Where no end group is shown, it is not given here. The star is where a group is joined. Biotin = O=C1N[C@H]2[C@H](CS[C@H]2CCCCC(=O)*)N1

B1: C245 Fab (Fab, V domains shown)
VH: EVQLQQSGPELVKPGASMKISCKASGYSFTGYTMNWVKQSHGNNLEWIGLINPYIGNTHYNQKFKDKATFTVDRSSSTAYMALLSLTSEDSAVYYCARELDSGFDYWGQGTTLTVSS
VL: DVLMTQTPLSLPVSLGDQASLSCRSSQNIVHSNGDTYLEWYLQKPGQSPKLLIYKVSNRFSGVPDRFSGSGSGTDFTLKISRVEAEDLGVYYCYQGSHVPWTFGGGTKLEIK
notes: Fab of chimeric C245; also called Fab monomer fragments derived from antibody C245
A word on the Kd: it is the concentration at which binding is half-saturated. A high value points to lower affinity. In general, koff refers to the rate constant with which the complex falls apart. Higher therefore signals fast dissociation. The term kon denotes a measure of how fast the partners come together. As for B1, the binding result with hCGRP(13-24) is recorded as “no binding (tested: 45 nM)”. The Kd with hCGRP(8-26) worked out at 0.952 nM; with hCGRP(8-19), 0.252 nM; with hCGRP(1-37), 0.249 nM; in the assay with hCGRP(1-19) it was 0.0721 nM; in the assay with hCGRP(1-13) [1], 24.4 nM. Also, the koff stood at 0.000316 s⁻¹ with hCGRP(8-26); 9.32e-05 s⁻¹ in the assay with hCGRP(8-19); 6.95e-05 s⁻¹ with hCGRP(1-37); 2.58e-05 s⁻¹ with hCGRP(1-19); 0.0172 s⁻¹ with hCGRP(1-13) [1]. In addition, the kon came to 332000 M⁻¹ s⁻¹ in the assay with hCGRP(8-26); 360000 M⁻¹ s⁻¹ with hCGRP(8-19); 280000 M⁻¹ s⁻¹ with hCGRP(1-37); 357000 M⁻¹ s⁻¹ in the assay with hCGRP(1-19); 704000 M⁻¹ s⁻¹ with hCGRP(1-13) [1]. Moreover, the “fold decrease in affinity” value with hCGRP(1-13) [2] is 100 fold.

B2: hu224 (antibody, human IgG4 S228P, kappa, V domains shown)
VH: QVQLVQSGAEVKKPGASVKVSCKASGYSFTGYTMNWVRQAPGQRLEWMGLINPYIGNTHYNQKFKDRVTFTVDRSSSTAYMELSSLRSEDTAVYYCARELDSGFDYWGQGTLVTVSS
VL: DVVMTQSPDSLAVSLGERATINCRSSQNIVHSNGDTYLEWYQQKPGQPPKLLIYKVSNRFSGVPDRFSGSGSGTDFTLTISSLQAEDVAVYYCYQGSHVPWTFGQGTKLEIKR
The term IC50 denotes the concentration that inhibits the measured activity by half. A high value points to a need for much substance. B2: inhibition in the assay with CGRP antigen was half-maximal at 0.0224 µg/mL (IC50). Besides, the “relative activity (%) vs C245” value with CGRP antigen came to 80%. Besides, the koff in [3] amounted to 0.0143 s⁻¹; in assay [4] it was 0.0141 s⁻¹; in assay [5] it was 0.000265 s⁻¹. In addition, in the assay with Biotin-huCGRPaSA, the “Relative binding activity, %” value is 82%.

The values above are taken from patent US20260125454A1 (SHANGHAI JUNSHI BIOSCIENCES, published 2026).
